In patent publication US20240197877A1 (published 2024):

T1: MYO1G (HA-2 SNP; MYO1G(M) variant) peptide on HLA-A*02:01 (human)
T1 peptide: YIGEVLVSM


Biological target: T1, MYO1G (HA-2 SNP; MYO1G(M) variant) …
Experiment: multimer staining

| binding result | Binder |
| --- | --- |
| no recognition | HA2-MJ13-SP43 (TCR, V domains shown) Valpha: QKEVEQNSGPLSVPEGAIASLNCTYSDRGSQSFFWYRQYSGKSPELIMFIYSNGDKEDGRFTAQLNKASQYVSLLIRDSQPSDSATYLCAVKGAGYSTLTFGKGTMLLVSP Vbeta: NAGVTQTPKFQVLKTGQSMTLQCAQDMNHEYMSWYRQDPGMGLRLIHYSVGAGITDQGEVPNGYNVSRSTTEDFPLRLLSAAPSQTSVYFCASSDGGALAYFGPGTRLTVL |
| no recognition | HA2-MJ14-SP4 (TCR, V domains shown) Valpha: QKEVEQNSGPLSVPEGAIASLNCTYSDRGSQSFFWYRQYSGKSPELIMFIYSNGDKEDGRFTAQLNKASQYVSLLIRDSQPSDSATYLCAVRRSGYSTLTFGKGTMLLVSP Vbeta: NAGVTQTPKFQVLKTGQSMTLQCAQDMNHEYMSWYRQDPGMGLRLIHYSVGAGITDQGEVPNGYNVSRSTTEDFPLRLLSAAPSQTSVYFCASSLGAEAFFGQGTRLTVV |
